From the nanobody polyreactivity screen of Harvey et al. (2022) come the findings set out here.

The series can be described thus: yeast display, Sf9 membrane polyspecificity reagent, FACS + sequencing; frameworks hold sequencing errors. The essentials: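 Galactose induction of a Saccharomyces cerevisiae BJ5465 synthetic nanobody display library ran 36–48 hours. The cells were then stained for 1 hour at 4 °C with 10% biotinylated, detergent-solubilized Sf9 membrane reagent, pulled down on streptavidin microbeads and FACS-sorted into low and high (top ~1%) gates on expression and reagent-binding fluorescence. Labels for polyreactivity follow the gate of origin.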
On to “QVHLVESGGGLVQAGGSLRLSCAAAGSTVVYNVMGWYRQAPGKERELVAAIRWRGGSTYADSVKGRFTISRDNAKKTVYLQMNSLKPEDTAVYYCAAGIPRYWYAGHYDYWGQGTQVTVSS”, for which the “polyreactivity (PSR sort gate)” value was “low polyreactivity”.

Take “QVHLVESGGGLVQAGGSLRLSCAASGFIFFYYAMGWYRQAPGTERELVAAISRSGGSTYYADSVKGRFTISRDNAKNTVYFQMNSLKPEDTAVYYCAAVWPVIYGMDYWGQGTQVTVSS”: the “polyreactivity (PSR sort gate)” value is “high polyreactivity”.

In the case of “QVHLVESGGGLVQAGGSLRLSCAASGFIFGYNARGWYRQAPAKERELVAAINWSGGRTYYADSVKGRFTISRDIAKNTVYLQMNSLKPEVTAVSYCNADGSRRYNYWGQGSQVTVSS”, the “polyreactivity (PSR sort gate)” value is reported as “low polyreactivity”.

For the sequence “QVHLVESGGGLVQAGGSLRLSCAASGFIFNYYAMGWYRQAPGKERELVAAISWRGTSTYYADSVKGRFTISRDNAKNTVYLQMNSLKPEDNAVYYCAAAKYPYVRRAWNFVGYDYWGQGTQVTVSS”, the “polyreactivity (PSR sort gate)” value was “high polyreactivity”.

Take “QVHLVESGGGLVQAGGSLRLSCAASGFIFYSNSMGWYRPAPGKERELVAAISSGGGSTRYADSVKGRFTISRDNAKNTVYLQMNSLKPEDTAVYYCASRDGYTIFRSTRYYYWGEGTQVTVSS”: the “polyreactivity (PSR sort gate)” value is given as “high polyreactivity”.

For the sequence “QVHLVESGGGLVQAGGSLRLSCAASGFIFYYYAMGWYRQAPGKERELFARISRRGGSTYYADSVKGRFTISRDNAKNTVYLQMNSLKPEDTAVYYCAAVYLVYYGVSDMDYWGQGTKVTVSS”, the “polyreactivity (PSR sort gate)” value is listed as “high polyreactivity”.

Take “QVHLVESGGGLVQAGGSLRLSCAASGFNLLPYALGWYRQAQGKERELVATINSGDSTYADSVKGRFTISRDNAKNTVYLQMNSLKPEDTAVYYCNAYWLVVPVDLDYWGQGTQVTVSS”: the “polyreactivity (PSR sort gate)” value is recorded as “low polyreactivity”.

Regarding “QVHLVESGGGLVQAGGSLRLSCAASGFTFGINAMGWYRQAPGKERELVAAINQSGDRTYYADSVKGRFTISRDNAKNPVYLELNSLKPDDTAVYYCAADTSYWYDYYIDYVGYYYWGQGTQVTVSS”, the “polyreactivity (PSR sort gate)” value was “high polyreactivity”.

As to “QVHLVESGGGLVQAGGSLRLSCAASGFTFIRYAMGWYRQAPGKETELVAAISVSGGRTYYADSVKGRFTISRDNAKNTVYLQMNSLKPEDTAVYYCARRPSYYQGDYWGQGTQVTVSS”, the “polyreactivity (PSR sort gate)” value was “high polyreactivity”.

As to “QVHLVESGGGLVQAGGSLRLSCAASGFTFNWYAMGWYRHAPGKERELVAAINSSGGNTYYADSVKGRFTISRDNAKNTVYLQMNSLKPEDTAVYYCAALLWGYVAFDYWGQGTQVTVSS”, the “polyreactivity (PSR sort gate)” value is “high polyreactivity”.

With “QVHLVESGGGLVQAGGSLRLSCAASGFTFPEYYMGWYRQAPGKESELVAAINYSDGRTFYADSVKGRFTISRDNAKNSVYLQMNSLKPEDTAVYYCASDLSYDVWFFGPDYDYSGQGTQVTVSS”, the “polyreactivity (PSR sort gate)” value is “low polyreactivity”.

For the sequence “QVHLVESGGGLVQAGGSLRLSCAASGFTFRDYAMGWYRQAPGKERELVAAIDIGTTTYYADSVKGRFTISRDNAKNTVYLQMNSLKPEDTAVYYCAAYSFASVYFGTGYDYWGQGTQVTVSS”, the “polyreactivity (PSR sort gate)” value is “low polyreactivity”.

On to “QVHLVESGGGLVQAGGSLRLSCAASGFTFRYYAMGSYRQAPGKERELVASIRRIGGSTYYADSVKGRFTISRDNAKNTVYLQMNSLKPDDTAVYYCAASTNFYYNPEYDSWGQGTQVTVSS”, for which the “polyreactivity (PSR sort gate)” value was “low polyreactivity”.

Take “QVHLVESGGGLVQAGGSLRLSCAASGFTFTRYAMGWYRQAPGKERELVAAISFSGGSTYYADSVKGRFTISRDNAKNTVYLQMNSLKPEDTAVYYCAGRWSVSYQYWGQGTQVTVSS”: the “polyreactivity (PSR sort gate)” value was “high polyreactivity”.

On to “QVHLVESGGGLVQAGGSLRLSCAASGFTFYYYAMGWYRQAPGKERELVAAISDSGGITYYADSVKGRFTISRDNAKNTVYLQMNSLKPEDTAVYYCAADFATPGPEYDYWGQGTQVTVSS”, for which the “polyreactivity (PSR sort gate)” value was “low polyreactivity”.

Consider “QVHLVESGGGLVQAGGSLRLSCAASGFTLFGYAMGWYRQAPGKERELVAAISKDGGSTYYADSVKGRFTISRDNAKNTVYLQMNSLKPEDTAVYYCAARVKRPQTGYDRRYGYWGQGTQVTVSS”, for which the “polyreactivity (PSR sort gate)” value is given as “high polyreactivity”.

“QVHLVESGGGLVQAGGSLRLSCAASGIIFGHYDMGWYRQAPGKERELVAAITFTGDSTYADSVKGRFTISRDNAMNTVYLQMNSLKPEDTAVYYCNASVKPSNVWSRGYDYWGQGTQVTVSS”: the “polyreactivity (PSR sort gate)” value is “low polyreactivity”.

For the sequence “QVHLVESGGGLVQAGGSLRLSCAASGIIFGVYAMGWYRQATGKESELVAAIDGNGSSTYYADSVKGRFTISRDNAKNTVFLQMNSLKPEDTAVYYCAAGYWSYLYYWYDFDYWGQGTQVTVSS”, the “polyreactivity (PSR sort gate)” value is listed as “low polyreactivity”.

For the sequence “QVHLVESGGGLVQAGGSLRLSCAASGIIFRHKAMLWYRQAPGKERELVAAISSGGNTYYADSVKGRFTISRDNAKNTVYLLMNSLKPEDTAVYYFADDVQDRYHRAWYDSWGQGRQVTVSS”, the “polyreactivity (PSR sort gate)” value is “low polyreactivity”.

For “QVHLVESGGGLVQAGGSLRLSCAASGIIFYFYTMGWYRQAPGKERELVAAISSSGGRTFYADSVKGRFTISRDNAKNTDYLQMNSLKPEDTAVYYCAAAHTREYYWGQGTQVTVSS”, the “polyreactivity (PSR sort gate)” value was “high polyreactivity”.

As for “QVHLVESGGGLVQAGGSLRLSCAASGIIFYLYAMGRYRQAPGKERELVAGITSGGDTKYADSVKGRFTISRDNAKNTVYLQMNSLKPEDTAVYYCATDSGSVWQRWGYANYDYWGQGTQVTVSS”, the “polyreactivity (PSR sort gate)” value was “low polyreactivity”.

As to “QVHLVESGGGLVQAGGSLRLSCAASGIIFYRYAMGWYRQAPGKERELVAAISWRGTSTYYADSVKARFTISRDNANNTVYLQMNSLKPEDTEVYYCNAGVRRKYGEYYYWGQGTQVTVSS”, the “polyreactivity (PSR sort gate)” value is recorded as “high polyreactivity”.

Regarding “QVHLVESGGGLVQAGGSLRLSCAASGITFGRNTMGWSRQAPGKERELVDAIDSCGNTYADSVKGRFTISRDNAKNTVYLKMNIVNPEDTAVYYCAVDGGEFSSYGEWGQGTQVTVAS”, the “polyreactivity (PSR sort gate)” value was “low polyreactivity”.

For “QVHLVESGGGLVQAGGSLRLSCAASGITFYYYAMGWYRQAPGKERELVAAIDTDGSTYYADSVKGRFTVSRDNAKNTVYLQMNILKPEDTAVYYCAAVIEYYPYSGYIYDYWGQGSQVTVSS”, the “polyreactivity (PSR sort gate)” value is given as “high polyreactivity”.

Consider “QVHLVESGGGLVQAGGSLRLSCAASGLIFLAYAMGWYRQAPGKERELVAAISTSGSTYYADSVKGRFTISRDNAKNTVYLQMNSLKPEDTAVYYCAAYDRWSVTYYYWGQGTQVTVSS”, for which the “polyreactivity (PSR sort gate)” value is “high polyreactivity”.

Regarding “QVHLVESGGGLVQAGGSLRLSCAASGLIFYFYAKGWYRQAPGKERELVAGITNGGSTNYADSVKGRFTISRDNAKNTVYLQMNSLKPEDTAVYYCAAQYYTVRSTYDYWGQGTQVTVSS”, the “polyreactivity (PSR sort gate)” value is listed as “high polyreactivity”.

For the sequence “QVHLVESGGGLVQAGGSLRLSCAASGLTFAWSAMGWYRPAPGKEREWVAAITSSGSRTYYADSVKGRFTISRDNAKNTVYLQMNSLKPEDTAVYYCAAPSRYRPTKGYPYYYWGQGTQVTVSS”, the “polyreactivity (PSR sort gate)” value is “high polyreactivity”.

Take “QVHLVESGGGLVQAGGSLRLSCAASGLTFLYNTMGWYRQAPGKEREFVAAITISGGTTYYADSVKGRFTISRDNAKNTVYLQMNSLKREDTAVYYCAADYNSTERGTNMDYWGQGTQVTVSS”: the “polyreactivity (PSR sort gate)” value is recorded as “low polyreactivity”.

On to “QVHLVESGGGLVQAGGSLRLSCAASGNIFGLYAMGWYRQAPGKERELVAAIRWIGGRTYYADSVKGRFTISRDNAKNTVYLQMNSLKPEDTAVYYCNAEYIVYYRGYDYWGHGTQVTVSS”, for which the “polyreactivity (PSR sort gate)” value was “high polyreactivity”.

“QVHLVESGGGLVQAGGSLRLSCAASGNTFYKYTMGWYRQAPGKERELVAVISSSSGSTYYADSVKGRFTISRDNAMNTVYLQMNSLKPEDTAVDYCNKRGWWDLRHDYWGQGTQVTVSS”: the “polyreactivity (PSR sort gate)” value is on record as “low polyreactivity”.

“QVHLVESGGGLVQAGGSLRLSCAASGRIFGDNAMGWYRQAPGKERELVAAITVNAGSTHYADSVKGRFTISRDNAKNTDYLQMNSLKPEDTAVYYCAKQTAPVTGVGPYYYWGQGTQVTVSS”: the “polyreactivity (PSR sort gate)” value is reported as “low polyreactivity”.

For “QVHLVESGGGLVQAGGSLRLSCAASGRIFGYNAMGWYRQAPGKERELVAAITGSRGSTYYADSVKGRFTFSRDTAKNTVYLQLNSLKPEDTAVYYCNAPGNHWGDWGHGTQVTVSS”, the “polyreactivity (PSR sort gate)” value is recorded as “low polyreactivity”.

Turning to “QVHLVESGGGLVQAGGSLRLSCAASGRIFGYYAMGWYRQAPGKVRELVAAIRRSGGSTYADSVKGRFTISRDNAKNTVYLQMNSLKPEDTAVYDCAAGHYWTSPYRVLSYSYWGQGTQVTVSS”, the “polyreactivity (PSR sort gate)” value was “high polyreactivity”.

With “QVHLVESGGGLVQAGGSLRLSCAASGRIFSLNAMGCDRQAPGKERELVAAISTGGASTYYADSVKGRFTISRDNAKNTVYLQMNSLKPEDTAVYSCAADLGYEYDYWGQGTQVTVSS”, the “polyreactivity (PSR sort gate)” value is listed as “high polyreactivity”.

Take “QVHLVESGGGLVQAGGSLRLSCAASGRIFSRNAMGWYRQAPGKERELVASITRGGSTYYADSVKGRFTISRDNAKITVYLQMNSLKPEDTAVYYCAAVFYDRGQRYNYWGQGTQVTVSS”: the “polyreactivity (PSR sort gate)” value is reported as “high polyreactivity”.

For “QVHLVESGGGLVQAGGSLRLSCAASGRIFTYYAMGWYRQAPGKERELFAGISRSGTSSYYADSVKGSFTISRDNAKNTVYLQMNSLKPEDTAVYYCAADVFRDDVWLDYWGQGTQVTVSS”, the “polyreactivity (PSR sort gate)” value was “low polyreactivity”.

“QVHLVESGGGLVQAGGSLRLSCAASGRIFYANARGWYRQAPGKERELVAAISQSGGSTFYADSVKGRFTISRDYAKNTVYLQMNSLKPEDTAVYYCATDYYGPVYDLDYDYWGQGTQVTVSS”: the “polyreactivity (PSR sort gate)” value is recorded as “low polyreactivity”.

Regarding “QVHLVESGGGLVQAGGSLRLSCAASGRIFYANDMGWYRQAPGKERELVAAITNTVSTTYADSVKGRFTISRDNAKNTVYLQMNSLKTEDTAVYYCNADDPYVPKADMGYWGQGTQVTVSS”, the “polyreactivity (PSR sort gate)” value is “low polyreactivity”.

On to “QVHLVESGGGLVQAGGSLRLSCAASGRIFYAYAMGWYRPAPVKERELVAAITWSGGSTYYADSVKGRFTISRDNAKNTVYLQMNSLKPEDTAVYYCAADLRVKYVHTYSYVWYRYDYWGQGTQVTVSS”, for which the “polyreactivity (PSR sort gate)” value is reported as “high polyreactivity”.

In the case of “QVHLVESGGGLVQAGGSLRLSCAASGRIIGKYAMGWYRQPPGKERELVAAITWSGGNTYYADSVKGRFTISRDNAKNTVYLQMNSLKPEDTAVYYCAASVPGKSHKDGYWGQGSQVTVSS”, the “polyreactivity (PSR sort gate)” value is “high polyreactivity”.

Regarding “QVHLVESGGGLVQAGGSLRLSCAASGRIINYYDMGWYRQAPGKERELVAAISRSGGRTYYADSVKGRFTISRDNAKNTVYLQMNSLKPEDNAVYYCAASDYQRYQPTPQYTYYYWGQGTQVTVSS”, the “polyreactivity (PSR sort gate)” value is recorded as “high polyreactivity”.
